Data on two molecules can be found in publication PMC10023571, “EGOC inhibits TOROID polymerization by structurally activating TORC1” (Nature Structural & Molecular Biology, 2023).

To fix the notation:
B2: Kog1 (Kog1-TAP) in the TOROID (natural protein, S. cerevisiae)
chain: MPEIYGPQPLKPLNTVMRHGFEEQYQSDQLLQSLANDFIFYFDDKRHKTNGNPIPEEDKQRDVNRYYQPITDWKIMKDRQKTVSAALLLCLNLGVDPPDVMKTHPCARVEAWVDPLNFQDSKKAIEQIGKNLQAQYETLSLRTRYKQSLDPCVEDVKRFCNSLRRTSKEDRILFHYNGHGVPKPTKSGEIWVFNRGYTQYIPVSLYDLQTWLGAPCIFVYDCNSAENILINFQKFVQKRIKDDEEGNHDVAAPSPTSAYQDCFQLASCTSDELLLMSPELPADLFSCCLTCPIEISIRIFLMQSPLKDSKYKIFFENSTSNQPFGDSKNSFKSKIPNVNIPGMLSDRRTPLGELNWIFTAITDTIAWTSLPRPLFKKLFRHDLMIAALFRNFLLAKRIMPWYNCHPVSDPELPDSITTHPMWKSWDLAMDEVLTKIVIDLKNAPPATALESQMILQQQETLQNGGSSKSNAQDTKAGSIQTQSRFAVANLSTMSLVNNPALQSRKSISLQSSQQQLQQQQQQQQQFTGFFEQNLTAFELWLKYASNVRHPPEQLPIVLQVLLSQVHRIRALVLLSRFLDLGPWAVYLSLSIGIFPYVLKLLQSPAPELKPILVFIWARIMSIDYKNTQSELIKEKGYMYFVTVLVPDWGVNGMSATNGSAMINSGNPLTMTASQNINGPSSRYYERQQGNRTSNLGHNNLPFYHSNDTTDEQKAMAVFVLASFVRNFPLGQKNCFSLELVNKLCFYIDNSEIPLLRQWCVILLGLLFADNPLNRFVCMNTGAVEILLKSLKDPVPEVRTASIFALKHFISGFQDAEVILRLQQEFEEQYQQLHSQLQHLQNQSHLQQQQSQQQQQHLEQQQMKIEKQIRHCQVMQNQLEVIDLRKLKRQEIGNLISILPLINDGSSLVRKELVVYFSHIVSRYSNFFIVVVFNDLLEEIKLLEKSDINTRNTSDKYSVSQGSIFYTVWKSLLILAEDPFLENKELSKQVIDYILLELSAHKELGGPFAVMEKFLLKRSSKAHQTGKFGFNSSQVQFVKSSLRSFSPNERVDNNAFKKEQQQHDPKISHPMRTSLAKLFQSLGFSESNSDSDTQSSNTSMKSHTSKKGPSGLYLLNGNNNIYPTAETPRFRKHTEPLQLPLNSSFLDYSREYFQEPQMKKQEADEPGSVEYNARLWRRNRNETIIQETQGEKKLSIYGNWSKKLISLNNKSQPKLMKFAQFEDQLITADDRSTITVFDWEKGKTLSKFSNGTPFGTKVTDLKLINEDDSALLLTGSSDGVIKIYRDYQDVDTFKIVSAWRGLTDMLLTPRSTGLLTEWLQIRGSLLTTGDVKVIRVWDAHTETVEVDIPAKTSSLITSLTADQLAGNIFVAGFADGSLRVYDRRLDPRDSMIRRWRAGNDKQGVWINNVHLQRGGYRELVSGATNGVVELWDIRSEDPVESFVDQNVTSQYGSQQKPTTMTCMQVHEHAPIIATGTKQIKIWTTSGDLLNSFKNSHNNGVTSTLAATGIPKSLSYSSTSDAFLSSMAFHPHRMMIAATNSHDSIVNIYKCEDERIDYF
notes: Kog1, S. cerevisiae, expressed as KOG1-TAP; source: S. cerevisiae KOG1-TAP ∆tor1 cells grown PDS, purified as TOROID

Common to all, as to assay: cryo-EM structure; TOROID filaments purified from KOG1-TAP ∆tor1 cells grown PDS (subunits co-purified from yeast); helical reconstruction, then signal subtraction and single particle analysis, 3.87 Å
One series addresses T1, Tor2 in the TOROID (S. cerevisiae (endogenous in S. …, UniProt P32600 1-2474)).
T1 construct: Tor2, S. cerevisiae; source: S. cerevisiae KOG1-TAP ∆tor1 cells grown PDS, purified as TOROID
Conditions: both partners purified.

For series [1], the target named is B2. As to conditions: both partners purified.
Series [2] deals with the molecule itself.

T1 sequence (P32600 whole entry): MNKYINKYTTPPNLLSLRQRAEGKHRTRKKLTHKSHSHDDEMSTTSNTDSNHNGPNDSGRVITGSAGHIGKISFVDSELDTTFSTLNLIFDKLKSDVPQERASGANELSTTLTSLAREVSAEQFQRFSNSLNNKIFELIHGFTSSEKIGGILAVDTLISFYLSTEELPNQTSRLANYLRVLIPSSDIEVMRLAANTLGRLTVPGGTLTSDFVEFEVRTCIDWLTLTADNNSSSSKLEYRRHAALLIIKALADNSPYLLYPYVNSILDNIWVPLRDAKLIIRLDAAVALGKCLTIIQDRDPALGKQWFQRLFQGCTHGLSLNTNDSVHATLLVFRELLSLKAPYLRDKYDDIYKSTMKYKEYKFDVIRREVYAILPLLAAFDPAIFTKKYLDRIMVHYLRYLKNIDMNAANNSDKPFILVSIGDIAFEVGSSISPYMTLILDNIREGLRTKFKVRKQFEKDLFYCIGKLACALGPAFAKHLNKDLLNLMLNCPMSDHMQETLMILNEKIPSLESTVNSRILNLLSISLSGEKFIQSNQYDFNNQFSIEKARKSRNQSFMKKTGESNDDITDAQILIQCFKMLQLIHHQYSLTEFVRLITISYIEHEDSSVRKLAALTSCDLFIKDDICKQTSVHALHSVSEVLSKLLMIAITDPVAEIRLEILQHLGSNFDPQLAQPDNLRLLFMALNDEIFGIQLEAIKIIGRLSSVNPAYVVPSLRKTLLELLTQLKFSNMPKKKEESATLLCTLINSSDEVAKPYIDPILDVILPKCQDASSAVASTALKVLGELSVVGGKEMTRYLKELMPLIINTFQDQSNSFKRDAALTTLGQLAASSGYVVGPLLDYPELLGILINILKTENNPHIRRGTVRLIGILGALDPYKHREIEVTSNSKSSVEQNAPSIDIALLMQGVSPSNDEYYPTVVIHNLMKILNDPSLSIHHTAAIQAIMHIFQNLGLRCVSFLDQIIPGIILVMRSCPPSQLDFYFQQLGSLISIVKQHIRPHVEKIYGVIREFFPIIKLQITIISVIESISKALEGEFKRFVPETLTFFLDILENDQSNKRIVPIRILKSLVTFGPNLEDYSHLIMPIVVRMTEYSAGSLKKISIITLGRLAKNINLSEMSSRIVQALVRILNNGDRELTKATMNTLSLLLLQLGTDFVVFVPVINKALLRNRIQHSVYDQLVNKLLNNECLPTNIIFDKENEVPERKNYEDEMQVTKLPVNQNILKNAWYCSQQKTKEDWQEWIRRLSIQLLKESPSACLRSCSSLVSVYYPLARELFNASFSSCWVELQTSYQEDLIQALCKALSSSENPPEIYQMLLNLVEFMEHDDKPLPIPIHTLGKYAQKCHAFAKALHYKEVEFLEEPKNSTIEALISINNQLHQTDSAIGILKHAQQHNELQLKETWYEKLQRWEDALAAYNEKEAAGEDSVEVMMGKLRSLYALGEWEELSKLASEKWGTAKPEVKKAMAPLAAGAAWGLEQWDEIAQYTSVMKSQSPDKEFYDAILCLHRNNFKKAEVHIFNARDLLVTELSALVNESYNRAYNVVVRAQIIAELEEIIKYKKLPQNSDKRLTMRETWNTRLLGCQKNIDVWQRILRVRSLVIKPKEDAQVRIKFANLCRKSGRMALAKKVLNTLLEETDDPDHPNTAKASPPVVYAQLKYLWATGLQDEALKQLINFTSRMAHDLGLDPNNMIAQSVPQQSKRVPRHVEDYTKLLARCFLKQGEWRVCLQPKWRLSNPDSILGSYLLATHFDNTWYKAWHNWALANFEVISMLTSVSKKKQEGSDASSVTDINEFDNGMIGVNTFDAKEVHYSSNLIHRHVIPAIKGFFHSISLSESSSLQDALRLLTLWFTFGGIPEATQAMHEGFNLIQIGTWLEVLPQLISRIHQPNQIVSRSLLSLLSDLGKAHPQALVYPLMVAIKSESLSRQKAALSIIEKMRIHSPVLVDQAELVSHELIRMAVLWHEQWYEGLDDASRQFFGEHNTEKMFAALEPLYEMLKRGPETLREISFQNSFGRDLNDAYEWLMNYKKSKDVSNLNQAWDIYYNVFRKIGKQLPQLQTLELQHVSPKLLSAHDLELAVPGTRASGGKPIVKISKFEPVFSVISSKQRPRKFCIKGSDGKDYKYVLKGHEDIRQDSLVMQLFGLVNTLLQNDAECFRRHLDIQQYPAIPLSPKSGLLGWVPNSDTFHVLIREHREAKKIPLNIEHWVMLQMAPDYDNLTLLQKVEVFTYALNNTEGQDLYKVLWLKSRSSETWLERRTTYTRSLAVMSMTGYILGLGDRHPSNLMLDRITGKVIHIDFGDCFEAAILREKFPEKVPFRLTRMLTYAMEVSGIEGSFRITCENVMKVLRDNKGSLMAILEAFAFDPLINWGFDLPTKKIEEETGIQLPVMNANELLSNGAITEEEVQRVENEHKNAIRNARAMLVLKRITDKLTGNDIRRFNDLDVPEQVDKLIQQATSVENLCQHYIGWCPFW

B1: Lst8 in the TOROID (natural protein, UniProt P41318 1-303, looked up)
chain: MSVILVSAGYDHTIRFWEALTGVCSRTIQHSDSQVNRLEITNDKKLLATAGHQNVRLYDIRTTNPNPVASFEGHRGNVTSVSFQQDNRWMVTSSEDGTIKVWDVRSPSIPRNYKHNAPVNEVVIHPNQGELISCDRDGNIRIWDLGENQCTHQLTPEDDTSLQSLSMASDGSMLAAANTKGNCYVWEMPNHTDASHLKPVTKFRAHSTYITRILLSSDVKHLATCSADHTARVWSIDDDFKLETTLDGHQRWVWDCAFSADSAYLVTASSDHYVRLWDLSTREIVRQYGGHHKGAVCVALNDV
notes: Lst8, S. cerevisiae; source: S. cerevisiae KOG1-TAP ∆tor1 cells grown PDS, purified as TOROID
Regarding B1, the binding result (with Tor2 in the TOROID; in series [1]) was “binds” throughout.

Consider B2, for which the binding result (in the series with Tor2 in the TOROID; in series [2]) was “binds” each time.
